Columns and labels:
caspase-3 [1] = target: T1, caspase-3 (Homo sapiens, UniProt P42574); assay: […] spectra of DEVD-(Tm-DOTA) amide before and after adding caspase-3; type: biochemical
T1 sequence (P42574 29-175 limits assumed): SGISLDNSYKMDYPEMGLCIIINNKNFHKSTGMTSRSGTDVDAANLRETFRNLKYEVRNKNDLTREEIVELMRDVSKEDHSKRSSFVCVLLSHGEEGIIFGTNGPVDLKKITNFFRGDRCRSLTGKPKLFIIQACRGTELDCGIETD
T1 sequence (P42574 176-277 limits assumed): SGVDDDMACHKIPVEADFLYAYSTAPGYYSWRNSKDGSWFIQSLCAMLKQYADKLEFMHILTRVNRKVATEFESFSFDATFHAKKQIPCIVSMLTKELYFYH
Text: In one embodiment, the caspase-3 substrate DEVD (Asp-Glu-Val-Asp) was elongated using the amino group on one side arm of lanthanide ligand anchored on the polymer support. FIG. 9 illustrates the conversion of the DEVD-(Ln-DOTA) 90 to amino-(Ln-DOTA) 92 through cleavage by caspase-3. […] Accordingly, the enzymatic activity of caspase-3 can be detected by the change in […] effect caused by this biotransformation.
FIG. 16 illustrates […] spectra 998 and MR parametric map 999 of DEVD-(Tm-DOTA) amide 155 before and after adding caspase-3. […] spectra were acquired at 37° C. and pH 7.4 with a continuous wave saturation pulse applied at 31 μT for 4 seconds. The deconvoluted […] spectrum of the product after reaction, showing a […] effect at +8 ppm, is also shown. MR images were acquired at 37° C. and pH 7.4 with a Bruker Biopsin 9.4 T MR scanner. A MSME T1 method was used with TR/TE=1623/10.9 ms and a train of Gaussian-shaped saturation pulses applied at 25 μT for 1.106 s, and with saturation offsets at −51 ppm and +51 ppm. The parametric map was obtained by subtracting the MR image with a saturation offset at −51 ppm from the MR image with saturation offset at +51 ppm. The magnitude of the scale of the original MR images was used as the scale for this parametric map, to properly represent the difference in MRI contrast obtained with different saturation offsets. The […] spectrum of 155 (25 mM, pH 7.4) was recorded by applying selective saturation in 1 ppm increments from +100 ppm to −100 ppm. A […] effect was detected at −51 ppm, which was assigned to the amide most proximal to the lanthanide ion in 155, based on identical results obtained from a similar compound, Tm3^+-DOTAMGly. After 48 nM of caspase-3 was added and the mixture was incubated at 37° C. and pH 7.4 for 1 hour, the […] effect at −51 ppm was decreased and an asymmetrical shape in the […] spectrum was observed near water. This asymmetry was analyzed by deconvolution to show a […] effect at +8 ppm.

caspase-3 [2] = target: T1, caspase-3; assay: MR parametric map of DEVD-(Tm-DOTA) amide before and after reaction with caspase-3; type: biochemical; conditions: saturation at −51 ppm vs +51 ppm, 9.4 T, 37° C., pH 7.4
Experimental: FIG. 16 illustrates […] spectra 998 and MR parametric map 999 of DEVD-(Tm-DOTA) amide 155 before and after adding caspase-3. […] spectra were acquired at 37° C. and pH 7.4 with a continuous wave saturation pulse applied at 31 μT for 4 seconds. The deconvoluted […] spectrum of the product after reaction, showing a […] effect at +8 ppm, is also shown. MR images were acquired at 37° C. and pH 7.4 with a Bruker Biopsin 9.4 T MR scanner. A MSME T1 method was used with TR/TE=1623/10.9 ms and a train of Gaussian-shaped saturation pulses applied at 25 μT for 1.106 s, and with saturation offsets at −51 ppm and +51 ppm. The parametric map was obtained by subtracting the MR image with a saturation offset at −51 ppm from the MR image with saturation offset at +51 ppm. The magnitude of the scale of the original MR images was used as the scale for this parametric map, to properly represent the difference in MRI contrast obtained with different saturation offsets. The […] spectrum of 155 (25 mM, pH 7.4) was recorded by applying selective saturation in 1 ppm increments from +100 ppm to −100 ppm. A […] effect was detected at −51 ppm, which was assigned to the amide most proximal to the lanthanide ion in 155, based on identical results obtained from a similar compound, Tm3^+-DOTAMGly. […] This asymmetry was analyzed by deconvolution to show a […] effect at +8 ppm. […]

change of PARACEST effect at −51 ppm after caspase-3 (caspase-3 [1]; 48 nM caspase-3, 37° C., pH 7.4, 1 hour): decreased | PARACEST effect after cleavage by caspase-3 (free amine) (caspase-3 [1]; 48 nM caspase-3, 37° C., pH 7.4, 1 hour, by deconvolution): +8 ppm | PARACEST effect, MR saturation frequency of amide (caspase-3 [1]; before caspase-3, 25 mM, pH 7.4, 37° C., 31 μT for 4 seconds): −51 ppm | change in water MR signal after reaction with caspase-3 (caspase-3 [2]): no significant change | decrease in water MR signal due to the PARACEST effect before the enzymatic reaction (caspase-3 [2]): ~14.5%
Substance: DEVD-(Tm-DOTA) amide [compound 155]
